In patent US20200262867A1 (WNTRX PHARMACEUTICALS, published 2020):
Bridges are numbered along the chain shown (N, C = ends). Primed or numbered codes have the meaning given here. Where no end group is shown, it is not given here. Side-chain parts run from the residue outwards. [ ]: non-standard residue; d: D form. The star is where a group is joined. S5′ = (S)-2-(4'-pentenyl)alanine, olefinic stapling residue closed by ring-closing metathesis; NMeQ′ = N-methylglutamine (N-alpha-methyl, stereo named both D and L in the filing); PEG4″ = PEG4 (tetraethylene glycol) spacer; 2Nal = N[C@@H](Cc1ccc2ccccc2c1)C(=O)O; NMeH = CN[C@@H](Cc1c[nH]cn1)C(=O)O; NMeR = CN[C@@H](CCCNC(=N)N)C(=O)O; Palmitoyl = CCCCCCCCCCCCCCCC(=O)*; hArg = N=C(N)NCCCC[C@H](N)C(=O)O; tBuAla = CC(C)(C)C[C@H](N)C(=O)O; NMeQ = CN[C@@H](CCC(N)=O)C(=O)O; Cha = N[C@@H](CC1CCCCC1)C(=O)O; Cit = NC(=O)NCCC[C@H](N)C(=O)O; Cba = N[C@@H](CC1CCC1)C(=O)O; S5 = C=CCCC[C@](C)(N)C(=O)O; Nle = CCCC[C@H](N)C(=O)O; βAla = NCCC(=O)O

T1: β-catenin (UniProt P35222 1-781, limits assumed)
T1 construct: also called beta-catenin
T1 sequence (looked up): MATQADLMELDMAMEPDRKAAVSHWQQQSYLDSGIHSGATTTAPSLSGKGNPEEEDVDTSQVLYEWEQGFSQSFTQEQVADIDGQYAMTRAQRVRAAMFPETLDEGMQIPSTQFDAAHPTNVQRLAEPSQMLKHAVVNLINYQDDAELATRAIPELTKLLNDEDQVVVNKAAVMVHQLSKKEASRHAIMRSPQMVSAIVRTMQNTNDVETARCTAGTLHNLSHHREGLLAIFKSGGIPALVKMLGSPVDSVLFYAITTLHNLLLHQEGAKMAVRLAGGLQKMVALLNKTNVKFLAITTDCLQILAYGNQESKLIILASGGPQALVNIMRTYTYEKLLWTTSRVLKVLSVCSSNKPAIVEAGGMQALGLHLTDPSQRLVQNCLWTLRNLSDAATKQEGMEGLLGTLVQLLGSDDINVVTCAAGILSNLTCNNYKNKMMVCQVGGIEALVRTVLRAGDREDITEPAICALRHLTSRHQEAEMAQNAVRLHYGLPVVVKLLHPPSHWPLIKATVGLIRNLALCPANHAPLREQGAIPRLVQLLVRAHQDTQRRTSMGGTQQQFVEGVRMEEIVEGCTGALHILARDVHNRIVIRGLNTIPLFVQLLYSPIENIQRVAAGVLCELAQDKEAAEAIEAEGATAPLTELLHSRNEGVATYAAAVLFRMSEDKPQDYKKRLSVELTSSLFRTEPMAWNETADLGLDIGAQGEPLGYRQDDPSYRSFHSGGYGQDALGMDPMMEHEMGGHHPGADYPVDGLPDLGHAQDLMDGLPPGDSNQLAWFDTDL

B1: SEQ ID NO: 40 (peptide)
peptide: Ac-RE[S5]SLQ[S5]LR[S5]IQR[S5]L[2Nal][βAla][βAla]-NH2
modifications: staple 10-14, 3-7; not fully specified; printed as REXaa1SLQXaa2LRXaa3IQRXaa4L(2-Nal)(β-Ala)(β-Ala)
B2: SEQ ID NO: 190 (peptide)
peptide: Ac-HRQRSLQTLR[S5]IQ[NMeR][S5][Cha][2Nal]-NH2
modifications: staple 11-15
SMILES: CC[C@H](C)[C@@H]1NC(=O)[C@@](C)(NC(=O)[C@H](CCCNC(=N)N)NC(=O)[C@H](CC(C)C)NC(=O)[C@@H](NC(=O)[C@H](CCC(N)=O)NC(=O)[C@H](CC(C)C)NC(=O)[C@H](CO)NC(=O)[C@H](CCCNC(=N)N)NC(=O)[C@H](CCC(N)=O)NC(=O)[C@H](CCCNC(=N)N)NC(=O)[C@H](Cc2c[nH]cn2)NC(C)=O)[C@@H](C)O)CCCC=CCCC[C@@](C)(C(=O)N[C@@H](CC2CCCCC2)C(=O)N[C@@H](Cc2ccc3ccccc3c2)C(N)=O)NC(=O)[C@H](CCCNC(=N)N)N(C)C(=O)[C@H](CCC(N)=O)NC1=O
B3: SEQ ID NO: 161 (peptide)
peptide: Ac-HRQRSLQTLR[S5]IQR[S5][Cba][2Nal]K([PEG4″-Palmitoyl])-NH2
modifications: staple 11-15
B4: SEQ ID NO: 191 (peptide)
peptide: Ac-HRQRSLQTLR[S5]IQR[S5][tBuAla][2Nal]-NH2
modifications: staple 11-15
SMILES: CC[C@H](C)[C@@H]1NC(=O)[C@@](C)(NC(=O)[C@H](CCCNC(=N)N)NC(=O)[C@H](CC(C)C)NC(=O)[C@@H](NC(=O)[C@H](CCC(N)=O)NC(=O)[C@H](CC(C)C)NC(=O)[C@H](CO)NC(=O)[C@H](CCCNC(=N)N)NC(=O)[C@H](CCC(N)=O)NC(=O)[C@H](CCCNC(=N)N)NC(=O)[C@H](Cc2c[nH]cn2)NC(C)=O)[C@@H](C)O)CCCC=CCCC[C@@](C)(C(=O)N[C@@H](CC(C)(C)C)C(=O)N[C@@H](Cc2ccc3ccccc3c2)C(N)=O)NC(=O)[C@H](CCCNC(=N)N)NC(=O)[C@H](CCC(N)=O)NC1=O
B5: SEQ ID NO: 207 (peptide)
peptide: {Palmitoyl-PEG4″}-HR[NMeQ′]RSL[NMeQ′]TLR[S5]IQR[S5][Cha][2Nal]-NH2
modifications: staple 11-15; not fully specified
B6: SEQ ID NO: 222 (peptide)
peptide: Ac-H[hArg]QRSLQTLR[S5]IQ[Cit][S5][Cha][2Nal]-NH2
modifications: staple 11-15
SMILES: CC[C@H](C)[C@@H]1NC(=O)[C@@](C)(NC(=O)[C@H](CCCNC(=N)N)NC(=O)[C@H](CC(C)C)NC(=O)[C@@H](NC(=O)[C@H](CCC(N)=O)NC(=O)[C@H](CC(C)C)NC(=O)[C@H](CO)NC(=O)[C@H](CCCNC(=N)N)NC(=O)[C@H](CCC(N)=O)NC(=O)[C@H](CCCCNC(=N)N)NC(=O)[C@H](Cc2c[nH]cn2)NC(C)=O)[C@@H](C)O)CCCC=CCCC[C@@](C)(C(=O)N[C@@H](CC2CCCCC2)C(=O)N[C@@H](Cc2ccc3ccccc3c2)C(N)=O)NC(=O)[C@H](CCCNC(N)=O)NC(=O)[C@H](CCC(N)=O)NC1=O
B7: SEQ ID NO: 164 (peptide)
peptide: HRQRSLQTLR[S5]IQ[NMeR][S5][Cba][2Nal]
modifications: staple 11-15; not fully specified (residues 3, 7, N-terminus, C-terminus); printed as HR(N-methylQ)RSL(N-methylQ)TLRXIQ(N-methylR)X(CBA)(2-Nal), X/X stapled, (S) α-methyl, N-terminal Ac, C-terminal NH2
B8: SEQ ID NO: 215 (peptide)
peptide: Ac-[NMeH]RQRSLQTLR[S5]IQR[S5][Cha][2Nal]-NH2
modifications: staple 11-15
SMILES: CC[C@H](C)[C@@H]1NC(=O)[C@@](C)(NC(=O)[C@H](CCCNC(=N)N)NC(=O)[C@H](CC(C)C)NC(=O)[C@@H](NC(=O)[C@H](CCC(N)=O)NC(=O)[C@H](CC(C)C)NC(=O)[C@H](CO)NC(=O)[C@H](CCCNC(=N)N)NC(=O)[C@H](CCC(N)=O)NC(=O)[C@H](CCCNC(=N)N)NC(=O)[C@H](Cc2c[nH]cn2)N(C)C(C)=O)[C@@H](C)O)CCCC=CCCC[C@@](C)(C(=O)N[C@@H](CC2CCCCC2)C(=O)N[C@@H](Cc2ccc3ccccc3c2)C(N)=O)NC(=O)[C@H](CCCNC(=N)N)NC(=O)[C@H](CCC(N)=O)NC1=O
B9: SEQ ID NO: 59 (peptide)
peptide: RERSLQTLRDIQRML[2Nal]
B10: SEQ ID NO: 62 (peptide)
peptide: HRERSLQTLR[Nle]IQR[Nle]L[2Nal]
B11: SEQ ID NO: 223 (peptide)
peptide: HRQRSLQTLXXIQRXAA
modifications: H(homoArg)QRSLQTL(Cit)XIQRX(Cha)(2-Nal); X/X stapled, (S) α-methyl; N-terminal Ac; C-terminal NH2
B12: SEQ ID NO: 193 (peptide)
peptide: Ac-HR[NMeQ]RSLQTLR[S5]IQR[S5][tBuAla][2Nal]-NH2
modifications: staple 11-15; also: N-methylglutamine 3: D or L (filing names both)
B13: SEQ ID NO: 49 (peptide)
peptide: LR[Nle]IQR[Nle]L[2Nal][βAla][βAla]
B14: SEQ ID NO: 36 (peptide)
peptide: Ac-QLEHRERSL[S5]TLR[S5]IQRML[2Nal]-NH2
modifications: staple 10-14; not fully specified; printed as QLEHRERSLXTLRXIQRML(2-Nal)
B15: SEQ ID NO: 209 (peptide)
peptide: {Palmitoyl-PEG4″}-H[hArg]QRSLQTLR[S5]IQR[S5][Cha][2Nal]-NH2
modifications: staple 11-15
B16: SEQ ID NO: 39 (peptide)
peptide: Ac-RE[S5]SLQ[S5]LR[S5]IQR[S5]L[2Nal]-NH2
modifications: staple 10-14, 3-7; not fully specified; printed as REXSLQXLRZIQRZL(2-Nal)
B17: SEQ ID NO: 7 (peptide)
peptide: Ac-EHRERSLQTLR[S5]IQR[S5]L[2Nal]-NH2
modifications: staple 12-16; not fully specified; printed as EHRERSLQTLRXIQRXL(2-Nal)
B18: SEQ ID NO: 12 (peptide)
peptide: Ac-EHQERSLQTLR[S5]IQR[S5]L[2Nal]-NH2
modifications: staple 12-16; not fully specified; printed as EHQERSLQTLRXIQRXL(2-Nal)
B19: SEQ ID NO: 9 (peptide)
peptide: Ac-EHRERSLQTLR[S5′]IQR[S5′][Cba][2Nal]-NH2
modifications: staple 12-16; not fully specified; printed as EHRERSLQTLRXIQRX(CBA)(2-Nal)
B20: SEQ ID NO: 63 (peptide)
peptide: EHRERSLQTLRDIQRML[2Nal]
B21: SEQ ID NO: 57 (peptide)
peptide: RSLQTLRDIQRML[2Nal]
B22: SEQ ID NO: 213 (peptide)
peptide: {Palmitoyl-PEG4″}-L[NMeQ′]TLR[S5]IQR[S5][Cba][2Nal]-NH2
modifications: staple 6-10; also: Q2 N-methyl: stated both D and L
B23: SEQ ID NO: 60 (peptide)
peptide: RERSLQTLR[Nle]IQR[Nle]L[2Nal]
B24: SEQ ID NO: 56 (peptide)
peptide: LQTLR[Nle]IQR[Nle]L[2Nal]P
B25: SEQ ID NO: 58 (peptide)
peptide: RSLQTLR[Nle]IQR[Nle]L[2Nal]
B26: SEQ ID NO: 34 (peptide)
peptide: Ac-LQTLR[S5]IQR[S5]L[2Nal][βAla][βAla]-NH2
modifications: staple 6-10; not fully specified; printed as LQTLRXIQRXL(2-Nal)(β-Ala)(β-Ala)
B27: SEQ ID NO: 27 (peptide)
peptide: Ac-LQTLR[S5]IQA[S5]L[2Nal]AA-NH2
modifications: staple 6-10; not fully specified; printed as LQTLRXIQAXL(2-Nal)AA
B28: SEQ ID NO: 55 (peptide)
peptide: LQTLRDIQRML[2Nal]P
B29: SEQ ID NO: 61 (peptide)
peptide: HRERSLQTLRDIQRML[2Nal]
B30: SEQ ID NO: 8 (peptide)
peptide: Ac-QLEHRERSLQTLR[S5]IQR[S5]L[2Nal]-NH2
modifications: staple 14-18; not fully specified; printed as QLEHRERSLQTLRXIQRXL(2-Nal)

The binders below were run against T1, β-catenin (assay: ALPHA Screen (BCL9/β-catenin);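 note: bead proximity readout with the polypeptide linked to donor beads and β-catenin fixed on acceptor beads, their binding bringing the beads close enough to emit signal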).
Excerpt: In this assay, a polypeptide is conjugated to a donor bead and its target protein (i.e., β-catenin) is attached to an acceptor bead. When the two beads are in proximity due to the binding of the polypeptide to the target protein, a signal is generated and the binding affinity of the polypeptide can be quantitatively calculated. The assay may be conducted in the presence or absence of an unconjugated control polypeptide.
B1 was tested, and the IC50 was 2380 nM.
B2 gave an IC50 of 271 nM.
For B3, the IC50 was 791 nM.
Work on B4 yielded an IC50 of 322 nM.
With B5 the IC50 was 354 nM.
Binder B6 has an IC50 of 742 nM.
In the case of B7, the IC50 is reported as 1480 nM.
B8 showed an IC50 of 9520 nM.
Work on B9 yielded an IC50 of 5950 nM.
For B10, the IC50 was 840 nM.
B11 gave an IC50 of 573 nM.
Binder B12 has an IC50 of 323 nM.
Work on B13 yielded an IC50 of 6710 nM.
B14 gave an IC50 of 940 nM.
With B15 the IC50 was 253 nM.
For B16, the IC50 was 2200 nM.
Binder B17 has an IC50 of 810 nM.
Work on B18 yielded an IC50 of 4160 nM.
B19 showed an IC50 of 1500 nM.
Binder B20 has an IC50 of 2500 nM.
With B21 the IC50 was 13600 nM.
In the case of B22, the IC50 is reported as 466 nM.
B23 was tested, and the IC50 was 2420 nM.
B24 showed an IC50 of 10100 nM.
In the case of B25, the IC50 is reported as 2840 nM.
Work on B26 yielded an IC50 of 9620 nM.
In the case of B27, the IC50 is reported as 6120 nM.
B28 gave an IC50 of 30300 nM.
B29 showed an IC50 of 1380 nM.
For B30, the IC50 was 770 nM.
